Data as given in article PMC7396438.
Where “and” joins values, the source holds several entries; their conditions need not be identical. Equal entries are not always repeated.

Tests used:
Experiment in all cases: cross-linking; in vivo photo-cross-linking in BamA mutant strains (chromosomal bamA replaced; pBpa at 64, at 132, or at both); blot with antibodies against SurA, bands quantified with ImageJ against nonspecific bands as internal control; repeated twice
BamA-R64pBpa (E. coli) = BamA-R64pBpa (E. coli) (UniProt P0A940)
BamA-D132pBpa (E. coli) = BamA-D132pBpa (E. coli) (UniProt P0A940)
[1] = biological target: BamA-R64&D132pBpa (E. coli) (UniProt P0A940)

Sequence of SurA (P0ABZ6 21-428): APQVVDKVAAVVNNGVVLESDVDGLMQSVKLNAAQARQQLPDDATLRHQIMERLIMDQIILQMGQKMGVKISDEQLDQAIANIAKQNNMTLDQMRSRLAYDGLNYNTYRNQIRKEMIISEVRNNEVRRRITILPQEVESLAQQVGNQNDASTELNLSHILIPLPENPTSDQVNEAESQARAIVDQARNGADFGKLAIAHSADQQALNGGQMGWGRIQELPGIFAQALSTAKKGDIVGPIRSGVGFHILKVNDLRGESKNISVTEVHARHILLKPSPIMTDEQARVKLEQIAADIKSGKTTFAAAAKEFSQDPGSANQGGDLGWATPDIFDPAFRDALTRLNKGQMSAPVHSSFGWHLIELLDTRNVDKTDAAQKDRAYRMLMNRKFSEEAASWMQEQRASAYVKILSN

amount of cross-linked product (ImageJ, against nonspecific bands) (BamA-R64pBpa (E. coli)): 1.97 | amount of cross-linked product (ImageJ, against nonspecific bands) (BamA-D132pBpa (E. coli)): 2.12 | amount of cross-linked product (ImageJ, against nonspecific bands) [1]: 1 and 1.02 | stoichiometry N [1]: 1 | sum of the amounts of the two cross-linked products (ImageJ) [1]: 2.02
Substance: SurA (from UniProt P0ABZ6 21-428) (natural protein)
